Laboratory results from patent US6605426B1, “Compounds, methods of screening, and in vitro and in vivo uses involving anti-apoptotic genes and anti-apoptotic gene products” (priority 1998, dated 2003).

B1: pUL36AD169-early: pUL36 of an early (pre-1982) passage of HCMV strain AD169; Cys131 (protein)
chain: MDDLRDTLMAYGCIAIRAGDFNGLNDFLEQECGTRLHVAWPERCFIQLRSRSALGPFVGKMGTVCSQGAYVCCQEYLHPFGFVEGPGFMRYQLIVLIGQRGGIYCYDDLRDCVYELAPTMKDFLRNGFRHCDHFHTMRDYQRPMVQYDDYWNAVMLYRGDVESLSAEVTKRGYASYTIDDPFDECPDTHFAFWTHNTEVMKFKETSFSVVRAGGSIQTMELMIRTVPRITCYHQLLGALGHEVPERKEFLVRQYVLVDTFGVVYGYDPAMDAVYRLAEDVVMFTCVMGKKGHRNHRFSGRREAIVRLEKTPTCQHPKKTPDPMIMFDEDDDDELSLPRNVMTHEEAESRLYDAITENLMHCVKLVTTDSPLATHLWPQELQALCDSPALSLCTDDVEGVRQKLRARTGSLHHFELSYRFHDEDPETYMGFLWDIPSCDRCVRRRRFKVCDVGRRHIIPGAANGMPPLTPPHVYMNN
B2: pUL37Smyc: pUL37S fused at its C-terminus with a c-myc-epitope tag; constitutively expressed in HeLa/UL37x1#3 cells (protein)
chain: MSPVYVNLLGSVGLLAFWYFSYRWIQRKRLEDPLPPWLRKKKACALTRRSRHRLRRQHGVIDGENSETERSVDLVAALLAEAGEESVTEDTEREDTEEEREDEEEENEARTPEVNPIDAEGLSGLAREACEALKKALRRHRFLWQRRQRARMLQHNGPQQSHQ

How the values were obtained:
[1] = biological target: T1, full-length pro-caspase 8 (Homo sapiens, UniProt Q14790); test: Co-precipitation in co-transfected 293T cells (anti-HA IP, anti-myc blot); format: binding; details: HA-tagged pro-caspase 8
T1 construct: HA-tagged full-length pro-caspase 8 (lanes 5 and 6); expressed in transfected cells; host or cells: 293T cells co-transfected with pUL36AD169-earlymyc or pUL36AD169-ATCCmyc
T1 sequence (Q14790 whole entry): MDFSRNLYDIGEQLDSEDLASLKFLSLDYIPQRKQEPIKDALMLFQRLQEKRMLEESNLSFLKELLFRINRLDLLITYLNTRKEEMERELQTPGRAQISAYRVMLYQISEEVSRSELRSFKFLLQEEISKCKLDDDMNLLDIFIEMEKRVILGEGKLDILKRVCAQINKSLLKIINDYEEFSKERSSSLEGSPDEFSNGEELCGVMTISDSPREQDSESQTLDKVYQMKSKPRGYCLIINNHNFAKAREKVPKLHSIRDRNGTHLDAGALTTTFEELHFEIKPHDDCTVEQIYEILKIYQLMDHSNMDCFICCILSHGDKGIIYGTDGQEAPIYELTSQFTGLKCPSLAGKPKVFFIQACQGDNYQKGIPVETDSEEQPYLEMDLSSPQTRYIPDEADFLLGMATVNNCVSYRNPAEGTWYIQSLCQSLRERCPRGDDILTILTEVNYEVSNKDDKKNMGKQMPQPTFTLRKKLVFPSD
Description: (§1) Pro-caspase 8 was detected on the pUL36-containing beads (lane 4), but not on the control beads (lane 2), while the lysates from all these cells contained similar amounts of pro-caspase 8 (compare lanes 1 and 3). […] To test this hypothesis, 293T cells were co-transfected with pUL36AD169-earlymyc and with a truncated pro-caspase 8, containing only its HA-tagged pro-domain region. pUL36AD169-earlymyc is expressed by a fusion gene comprising a UL36 ORF isolated from a pre-1982 passage of CMVAD169 and the carboxy-linked myc epitope tag. The cells were lysed as above, and anti-HA antibody was used to immunoprecipitate the caspase 8 pro-domain. Anti-myc antibodies were then used to probe a Western blot for the inclusion of pUL36 with the immunoprecipitated material. Control cells were transfected with pUL36AD169-earlymyc with either the empty vector (negative control), or with HA-tagged pro-caspase 8 (positive control). Additional cells were co-transfected with the non-functional mutant pUL36AD169-ATCCmyc with either the HA-pro-domain, the empty vector or HA-pro-caspase 8.

[2] = biological target: T2, pro-domain of caspase 8 (Homo sapiens, UniProt Q14790); test: as above; format: binding; details: HA-tagged pro-domain
T2 construct: a truncated pro-caspase 8, containing only its HA-tagged pro-domain region; expressed in transfected cells; host or cells: 293T cells co-transfected with pUL36AD169-earlymyc or pUL36AD169-ATCCmyc
T2 sequence (Q14790 1-216 limits assumed): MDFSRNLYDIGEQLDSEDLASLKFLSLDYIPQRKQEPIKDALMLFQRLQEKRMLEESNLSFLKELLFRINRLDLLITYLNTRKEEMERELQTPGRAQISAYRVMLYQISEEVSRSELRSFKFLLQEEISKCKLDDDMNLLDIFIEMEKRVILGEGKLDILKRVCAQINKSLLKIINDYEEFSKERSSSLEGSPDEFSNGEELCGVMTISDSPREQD
Description: as §1

[3] = system: HeLa cells; test: Transient transfection apoptosis assay in HeLa cells (anti-Fas antibody+CHX or TNF-α+CHX); format: cell-based, human; details: transiently transfected HeLa cells; anti-Fas antibody+CHX 24 h; surviving cells scored
Description: Tumor necrosis factor receptor 1 (TNF-R1)-mediated apoptosis was induced by exposure of HeLa and MRC-5 cells to tumor necrosis factor-α (TNF-α) (Sigma, 10-60 ng/mL)+CHX (10-30 μg/mL). Fas-mediated apoptosis was induced by exposure of cells to an anti-Fas antibody (Coulter, 7C11 antibody at 0.2-4 μg/mL)+CHX (10-30 μg/mL). The degree of cell death was determined by the visual scoring of surviving cells, in representative fields, under a phase microscope. A similar degree of cell death occurred in fibroblasts when examined 5 to 28 h after the start of exposure, or a similar degree of cell death occurred in HeLa cells when examined 9-28 h after the start of exposure. Further, a similar degree of cell death for a given reagent was produced when any concentration within the range indicated above was used.
The degree of cell death in cells transfected with an indicator plasmid expressing E. coli β-galactosidase was determined by either a β-galactosidase ELISA (Boehringer Mannheim), in accordance with the manufacturer's recommendations, or by visually scoring, under a microscope, positive blue cells, expressing β-galactosidase, after staining them with X-gal.
HeLa cells were transiently co-transfected with an expression plasmid vector, pME18S, carrying a polynucleotide sequence encoding IE1 or IE2 (FIG. 5, “IE1” and “IE2,” respectively), and a vector carrying the β-galactosidase gene (pCMVβ, Clontech). As a positive control, HeLa cells were transiently co-transfected with pCMVβ and a vector carrying a polynucleotide sequence encoding an anti-apoptotic polypeptide, such as the adenovirus E1B 19K or baculovirus p35.
Expression of IE1 (approx. 72 kDa) and IE2 (approx. 86 kDa) in the transfected HeLa cells was confirmed by Western blot analysis, by immunofluorescence visually examined under a fluorescence microscope, and by transactivation activity which led to an elevation of the vector-CMV-promoter-driven β-galactosidase expression which was increased 2- to 5-fold, as measured by a β-galactosidase ELISA (data not shown). Apoptosis was induced by incubating the transfected cells for 24 h with either TNF-α+CHX, or anti-Fas antibody+CHX. The surviving cells were stained with X-gal, a chromogenic substrate of β-galactosidase, and then the blue-stained cells were scored (FIG. 5).
To identify HCMV genes that can suppress apoptosis induced by Fas-ligation, the present inventors established a transient transfection assay in HeLa cells. The HeLa cells can be transfected at much higher efficiency than MRC-5 cells and are similar in their sensitivity towards anti-Fas antibody and TNF-α treatment. Enhanced survival of HeLa cells following anti-Fas antibody+CHX treatment was detected by elevated β-galactosidase (β-gal) levels produced by a transfected β-gal marker plasmid.
The deletion mutants were transiently expressed in HeLa cells, cultured in DMEM supplemented with 10% fetal bovine serum, and assayed for their ability to block Fas- or TNF-R1-mediated apoptosis. Transfections and apoptosis assays were performed as previously described (Goldmacher et al., 1999). Briefly, cells were transiently transfected with the expression vectors (purified with a Qiagen plasmid purification kit) using SuperFect transfection reagent (Qiagen) in accordance with the manufacturer's protocol. After 24 hours, cells were exposed to anti-Fas 7C11 antibody (Coulter, 0.5 μg/ml)+cyclohexamide (Sigma, 10 μg/ml) for 24 hours.
A genomic DNA library was cloned into pZeoSV2(+) plasmid (Invitrogen). Ten cosmids, pCM1007, pCM1015, pCM1017, pCM1029, pCM1035, pCM1039, pCM1040, pCM1052, pCM1058, and pCM1072, covering the AD169 genome (Fleckenstein et al., 1982, which is incorporated herein by reference), and pON2601 Toledo cosmid (Cha et al., 1996, which is incorporated herein by reference) containing unique HCMV sequences, were mixed in equal amounts and partially digested with Sau3AI (New England Biolabs, Beverly, Mass.). […]

[4] = system: HeLa/UL37x1#3 cells; test: Dominant-negative assay: pUL37S deletion mutants in HeLa/UL37x1#3 cells, β-galactosidase ELISA; format: cell-based, human; details: HeLa/UL37S #3 cells transfected with the empty vector; anti-Fas plus cyclohexamide 24 h
Description: 24 h after co-transfection, the cells were either exposed for an additional 24 h to anti-Fas antibody, in the presence of cyclohexamide (FIGS. 11A and 11B, closed bars) or left untreated (FIGS. 11A and 11B, open bars). The surviving cells were than quantified by determining the β-galactosidase levels with a β-galactosidase ELISA (Boehringer Mannheim). […] The control HeLa/pcDNA3-A cells were sensitive to Fas-mediated apoptosis, and this sensitivity was not affected by the expression of the deletion mutants.
Apoptosis was induced in the cell line HeLa/UL37x1#3 (HeLa cells transfected with UL37x1, clone No. 3), that constitutively expresses pUL37Smyc and is resistant to apoptosis, through the addition of anti-Fas antibodies and cyclohexamide to the culture medium. To identify dominant-negative mutants, HeLa/UL37x1#3 cells were co-transfected with the lacZ (encoding β-galactosidase) indicator plasmid vector, together with either an expression vector for a pUL37S deletion mutant or the empty plasmid vector, pcDNA3. […]
One day after the transfection, cells were treated with anti-Fas antibody plus cyclohexamide for 24 h. Cell survival was then assessed by measuring spectrophotometrically the level of β-galactosidase expression, as described in Example 1. […]

[5] = system: HeLa cells; test: Apoptosis resistance of HeLa clones stably expressing pUL37Smyc; format: cell-based, human
Description: In a preferred embodiment, HeLa clones continuously (as opposed to transiently) express the version of pUL37s tagged with the C-terminal myc-peptide (amino acids 408-421 within the carboxy terminal domain of human c-Myc) generated by stable transfection with either an expression plasmid containing UL37S alone, or in a mixture with an expression plasmid coding for puromycin-N-acetyl-transferase such as pPUR (Clontech, Palo Alto, Calif.). Following the transfection, drug-resistant clones are selected in medium containing G418 (0.7 mg/mL) or in medium containing puromycin (1 μg/ml), and then the clones are screened for the expression of pUL36-myc-tagged and pUL37S-myc-tagged polypeptides, respectively, by Western analysis with 9E10 anti-Myc antibody (Santa Cruz Biotechnology, Inc., Santa Cruz, Calif.). In using this approach, the present inventors isolated four clones that expressed pUL37S-myc (designated as HeLa/UL37S). These clones were then used to conduct further studies reported in Example 9. Also, four G418-resistant clones of HeLa cells stably transfected with pcDNA3/myc (empty vector, control) were isolated by similar procedures, two with G418 (HeLa/G418) and two with puromycin (HeLa/puro), and used as a negative control in the Western blot analysis and experiments studying the anti-apoptotic activity of the clones.
Three transfected G418-resistant HeLa clones were isolated that stably express pUL37S myc (designated HeLa/UL37×1myc #3, #8, and #N1), as detected by Western blot analysis with the 9E10 anti-myc antibody (Evan et al., 1985, which is incorporated herein by reference) (FIG. 8A). In parallel, three HeLa clones were isolated following stable transfections with the pcDNA3 vector alone (designated HeLa/pcDNA3-A, -B, and —C). […] While virtually all of the HeLa/pcDNA3-A control cells died following an overnight exposure to anti-Fas antibody+CHX or TNF-α+CHX, only a small fraction of the pUL37Smyc-expressing cells underwent apoptosis after an overnight exposure to these agents FIG. 8B). Moreover, most of the pUL37Smyc-expressing cells continued to survive for more than 3 days of culturing in the presence of either anti-Fas antibody+CHX or TNF-α+CHX.
The present inventors tested whether pUL37S can inhibit apoptosis triggered by other stimuli. […] Thus, pUL37S is a broadly acting inhibitor of apoptosis that can inhibit or diminish cell death induced by a variety of cytotoxic agents.

Molecule | co-precipitation with full-length pro-caspase 8 [1] | co-precipitation with the pro-domain of caspase 8 [2] | anti-apoptotic activity: protection against Fas-mediated apoptosis [3] | β-gal signal compared to untreated cells [4] | resistance to apoptosis induced by doxorubicin ([5]; doxorubicin 1, 3, and 6 μM, 24 h, trypan blue exclusion) | duration of survival in culture with apoptotic stimulus ([5]; in the presence of either anti-Fas antibody+CHX or TNF-α+CHX) | resistance to TNF-R1-mediated apoptosis ([5]; stable HeLa clones, TNF-α+CHX) | resistance to Fas-mediated apoptosis ([5]; stable HeLa clones, anti-Fas antibody+CHX)
B1 | co-precipitated | co-precipitated | effective death suppressors |  |  |  |  | 
B2 |  |  |  | about 40% | substantially more resistant | more than 3 days | resistant | resistant
